This note sets out measurements from publication PMC3268815 (Nature, 2011).

The series “crystal structure” concerns the molecule itself. Nature of the series: crystal structure.
Series [1] concerns the target T1, fibrinogen fragment D (human, UniProt P02671 130-216; P02675 164-491; P02679 114-432).
T1 sequence 1: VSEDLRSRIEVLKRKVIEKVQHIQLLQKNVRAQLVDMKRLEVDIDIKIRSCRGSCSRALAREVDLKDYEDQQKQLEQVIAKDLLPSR
T1 sequence 2: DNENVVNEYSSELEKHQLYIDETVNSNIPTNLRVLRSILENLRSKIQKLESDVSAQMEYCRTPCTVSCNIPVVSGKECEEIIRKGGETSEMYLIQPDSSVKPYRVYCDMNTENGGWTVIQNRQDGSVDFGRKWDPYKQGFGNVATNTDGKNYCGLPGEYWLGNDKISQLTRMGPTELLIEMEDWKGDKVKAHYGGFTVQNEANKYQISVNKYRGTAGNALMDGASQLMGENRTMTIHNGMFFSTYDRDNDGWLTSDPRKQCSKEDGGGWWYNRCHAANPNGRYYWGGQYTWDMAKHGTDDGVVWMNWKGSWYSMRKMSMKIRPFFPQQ
T1 sequence 3: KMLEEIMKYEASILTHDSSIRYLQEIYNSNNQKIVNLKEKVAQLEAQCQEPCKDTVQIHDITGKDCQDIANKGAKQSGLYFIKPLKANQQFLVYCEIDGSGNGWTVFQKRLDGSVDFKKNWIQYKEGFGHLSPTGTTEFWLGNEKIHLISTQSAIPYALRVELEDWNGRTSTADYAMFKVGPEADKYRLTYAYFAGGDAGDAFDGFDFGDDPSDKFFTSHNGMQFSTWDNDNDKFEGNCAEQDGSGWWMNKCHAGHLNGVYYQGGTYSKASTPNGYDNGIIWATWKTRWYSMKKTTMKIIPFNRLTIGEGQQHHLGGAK
Description: crystal structure.

For series [2], the target named is T1, fibrinogen fragment D. Description: pull-down.

Residue numbers refer to the chain shown, from its start. Names may count otherwise.

B1: M1^BC1 (M1 fragment with B-repeats, S-region and first C-repeat) (domain or fragment, UniProt Q99XV0 128-263, looked up)
chain: WDRQRLEKELEEKKEALELAIDQASRDYHRATALEKELEEKKKALELAIDQASQDYNRANVLEKELETITREQEINRNLLGNAKLELDQLSSEKEQLTIEKAKLEEEKQISDASRQSLRRDLDASREAKKQVEKDL
The stoichiometry N is a count of units in the complex or per binding partner. Turning to B1, the “stoichiometry N” value in the series “crystal structure” was determined as 2.

B2: selenomethionine-substituted M1^BC1(I148M) (domain or fragment, UniProt Q99XV0 128-263, looked up)
chain: B1 chain with I21M
modifications: selenomethionine-substituted
On to B2, for which, in the series with fibrinogen fragment D [1], the binding result is recorded as “binds”.

B3: M1 B2C (residues 162-189 deleted and inserted after C-terminal residue 453) (natural protein, UniProt Q99XV0 42-453, looked up)
chain: NGDGNPREVIEDLAANNPAIQNIRLRYENKDLKARLENAMEVAGRDFKRAEELEKAKQALEDQRKDLETKLKELQQDYDLAKESTSWDRQRLEKELEEKKEALELAIDQASRDYHRATALEKELETITREQEINRNLLGNAKLELDQLSSEKEQLTIEKAKLEEEKQISDASRQSLRRDLDASREAKKQVEKDLANLTAELDKVKEDKQISDASRQGLRRDLDASREAKKQVEKDLANLTAELDKVKEEKQISDASRQGLRRDLDASREAKKQVEKALEEANSKLAALEKLNKELEESKKLTEKEKAELQAKLEAEAKALKEQLAKQAEELAKLRAGKASDSQTPDTKPGNKAVPGKGQAPQAGTKPNQNKAPMKETKRQLPSTEKELEEKKKALELAIDQASQDYNRANVL
Take B3: the binding result in the series with fibrinogen fragment D [2] was “binds”.
